Residue numbers refer to the chain shown, from its start. Numbers in names are those of the source. Entries after “also recorded” stand apart in the source; their conditions may differ.
Legend:
[1] = biological target: insulin A chain wherein cysteine residue had been oxidized (Sigma)
ovalbumin, P01012 = biological target: T1, ovalbumin, P01012
T1 chain: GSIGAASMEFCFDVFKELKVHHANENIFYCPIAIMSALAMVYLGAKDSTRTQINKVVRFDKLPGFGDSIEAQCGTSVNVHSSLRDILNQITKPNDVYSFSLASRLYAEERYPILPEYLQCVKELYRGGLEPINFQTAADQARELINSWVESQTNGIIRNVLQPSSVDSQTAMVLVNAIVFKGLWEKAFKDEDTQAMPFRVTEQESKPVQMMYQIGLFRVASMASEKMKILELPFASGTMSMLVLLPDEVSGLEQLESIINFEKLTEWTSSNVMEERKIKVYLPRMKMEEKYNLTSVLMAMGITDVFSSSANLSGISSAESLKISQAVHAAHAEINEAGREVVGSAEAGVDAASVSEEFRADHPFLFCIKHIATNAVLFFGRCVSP

Chain of insulin A chain wherein cysteine residue had been oxidized (Sigma) (chain, as listed by the source): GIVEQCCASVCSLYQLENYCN

B1: transglutaminase derived from Streptoverticillium mobaraense (MTG), wild type (protein)
chain: DSDDRVTPPAEPLDRMPDPYRPSYGRAETVVNNYIRKWQQVYSHRDGRKQQMTEEQREWLSYGCVGVTWVNSGQYPTNRLAFASFDEDRFKNELKNGRPRSGETRAEFEGRVAKESFDEEKGFQRAREVASVMNRALENAHDESAYLDNLKKELANGNDALRNEDARSPFYSALRNTPSFKERNGGNHDPSRMKAVIYSKHFWSGQDRSSSADKRKYGDPDAFRPAPGTGLVDMSRDRNIPRSPTSPGEGFVNFDYGWFGAQTEADADKTVWTHGNHYHAPNGSLGAMHVYESKFRNWSEGYSDFDRGAYVITFIPKSWNTAPDKVKQGWP
Which “15N-labeled residue identified by mass spectrometry” value [1] does the source give for B1 here?
Its value is “in the two glutamine residues in insulin A chain, the 15th glutamine residue was the substrate of MTG”.

And the “15N-labeling rate of the ovalbumin glutamine residue giving signal "a"” value (ovalbumin, P01012)?
The value was “the order of the 15N-labeling rate was S2Y<S2D<wild type<S2R”.

What about the “groups of 1H-15N HSQC signals of 15N-labeled ovalbumin glutamine residues after 6 hours” value (from here on “groups”) (ovalbumin, P01012) of the same protein?
Its value is 6 groups of the signals were found when the wild type was used.

B2: Ser-type MTG (mutant in which Asp1 has been removed, starts with Ser2) (protein)
chain: SDDRVTPPAEPLDRMPDPYRPSYGRAETVVNNYIRKWQQVYSHRDGRKQQMTEEQREWLSYGCVGVTWVNSGQYPTNRLAFASFDEDRFKNELKNGRPRSGETRAEFEGRVAKESFDEEKGFQRAREVASVMNRALENAHDESAYLDNLKKELANGNDALRNEDARSPFYSALRNTPSFKERNGGNHDPSRMKAVIYSKHFWSGQDRSSSADKRKYGDPDAFRPAPGTGLVDMSRDRNIPRSPTSPGEGFVNFDYGWFGAQTEADADKTVWTHGNHYHAPNGSLGAMHVYESKFRNWSEGYSDFDRGAYVITFIPKSWNTAPDKVKQGWP
How did the “15N-labeling rate of the ovalbumin glutamine residue giving signal "a" (1H-15N HSQC peak intensity vs. reaction time)” value (ovalbumin, P01012) turn out when B2 was run?
Its value is “more rapidly 15N-labeled when it was reacted with the Ser-type rather than when reacted with the wild type”.

B3: Sg7 mutant MTG (residue Nos. 278 to 287 replaced with 3 glycine residues) (protein)
chain: DSDDRVTPPAEPLDRMPDPYRPSYGRAETVVNNYIRKWQQVYSHRDGRKQQMTEEQREWLSYGCVGVTWVNSGQYPTNRLAFASFDEDRFKNELKNGRPRSGETRAEFEGRVAKESFDEEKGFQRAREVASVMNRALENAHDESAYLDNLKKELANGNDALRNEDARSPFYSALRNTPSFKERNGGNHDPSRMKAVIYSKHFWSGQDRSSSADKRKYGDPDAFRPAPGTGLVDMSRDRNIPRSPTSPGEGFVNFDYGWFGAQTEADADKTVWTHGNHGGGMHVYESKFRNWSEGYSDFDRGAYVITFIPKSWNTAPDKVKQGWP
B3 was tested. Which “groups” value (ovalbumin, P01012) did it give?
The value was “only 3 groups and 2 groups of the signals were found when Sg4 and Sg7 were used, respectively”.

B4: del 1-3 mutant MTG (residue Nos. 1 to 3 removed) (protein)
chain: DRVTPPAEPLDRMPDPYRPSYGRAETVVNNYIRKWQQVYSHRDGRKQQMTEEQREWLSYGCVGVTWVNSGQYPTNRLAFASFDEDRFKNELKNGRPRSGETRAEFEGRVAKESFDEEKGFQRAREVASVMNRALENAHDESAYLDNLKKELANGNDALRNEDARSPFYSALRNTPSFKERNGGNHDPSRMKAVIYSKHFWSGQDRSSSADKRKYGDPDAFRPAPGTGLVDMSRDRNIPRSPTSPGEGFVNFDYGWFGAQTEADADKTVWTHGNHYHAPNGSLGAMHVYESKFRNWSEGYSDFDRGAYVITFIPKSWNTAPDKVKQGWP
With B4 as the protein, how does the “reactivity to the ovalbumin glutamine residue giving signal "a" (1H-15N HSQC peak intensity vs. reaction time)” value (ovalbumin, P01012) read?
Its value is “the reactivity of each of del 1-2 and del 1-3 was improved as compared with that of the wild type; also recorded: the reactivity of del 1-3 was even much higher than that of Ser type or S2R”.

B5: Sg4 mutant MTG (residue Nos. 241 to 252 replaced with 3 glycine residues) (protein)
chain: DSDDRVTPPAEPLDRMPDPYRPSYGRAETVVNNYIRKWQQVYSHRDGRKQQMTEEQREWLSYGCVGVTWVNSGQYPTNRLAFASFDEDRFKNELKNGRPRSGETRAEFEGRVAKESFDEEKGFQRAREVASVMNRALENAHDESAYLDNLKKELANGNDALRNEDARSPFYSALRNTPSFKERNGGNHDPSRMKAVIYSKHFWSGQDRSSSADKRKYGDPDAFRPAPGTGLVDMSRDRNIGGGNFDYGWFGAQTEADADKTVWTHGNHYHAPNGSLGAMHVYESKFRNWSEGYSDFDRGAYVITFIPKSWNTAPDKVKQGWP
B5 was tested. Which “groups” value (ovalbumin, P01012) did it give?
Its value is “only 3 groups and 2 groups of the signals were found when Sg4 and Sg7 were used, respectively”.

B6: S2Y mutant MTG (Ser2 replaced with Tyr, in Met type MTG) (protein)
chain: MDYDDRVTPPAEPLDRMPDPYRPSYGRAETVVNNYIRKWQQVYSHRDGRKQQMTEEQREWLSYGCVGVTWVNSGQYPTNRLAFASFDEDRFKNELKNGRPRSGETRAEFEGRVAKESFDEEKGFQRAREVASVMNRALENAHDESAYLDNLKKELANGNDALRNEDARSPFYSALRNTPSFKERNGGNHDPSRMKAVIYSKHFWSGQDRSSSADKRKYGDPDAFRPAPGTGLVDMSRDRNIPRSPTSPGEGFVNFDYGWFGAQTEADADKTVWTHGNHYHAPNGSLGAMHVYESKFRNWSEGYSDFDRGAYVITFIPKSWNTAPDKVKQGWP
B6 was tested. Which “15N-labeling rate of the ovalbumin glutamine residue giving signal "a"” value (ovalbumin, P01012) did it give?
The value was “the order of the 15N-labeling rate was S2Y<S2D<wild type<S2R”.

B7: S2D mutant MTG (Ser2 replaced with Asp, in Met type MTG) (protein)
chain: B6 chain with Y3D
For B7, which “15N-labeling rate of the ovalbumin glutamine residue giving signal "a"” value (ovalbumin, P01012) is on record?
Its value is “the order of the 15N-labeling rate was S2Y<S2D<wild type<S2R”.

B8: S2R mutant MTG (Ser2 replaced with Arg, in Met type MTG) (protein)
chain: B6 chain with Y3R
For B8, which “15N-labeling rate of the ovalbumin glutamine residue giving signal "a"” value (ovalbumin, P01012) is on record?
Its value is “the order of the 15N-labeling rate was S2Y<S2D<wild type<S2R”.

B9: del 1-2 mutant MTG (residue Nos. 1 and 2 removed) (protein)
chain: DDRVTPPAEPLDRMPDPYRPSYGRAETVVNNYIRKWQQVYSHRDGRKQQMTEEQREWLSYGCVGVTWVNSGQYPTNRLAFASFDEDRFKNELKNGRPRSGETRAEFEGRVAKESFDEEKGFQRAREVASVMNRALENAHDESAYLDNLKKELANGNDALRNEDARSPFYSALRNTPSFKERNGGNHDPSRMKAVIYSKHFWSGQDRSSSADKRKYGDPDAFRPAPGTGLVDMSRDRNIPRSPTSPGEGFVNFDYGWFGAQTEADADKTVWTHGNHYHAPNGSLGAMHVYESKFRNWSEGYSDFDRGAYVITFIPKSWNTAPDKVKQGWP
Which “reactivity to the ovalbumin glutamine residue giving signal "a" (1H-15N HSQC peak intensity vs. reaction time)” value (ovalbumin, P01012) does the source give for B9 here?
The value was “the reactivity of each of del 1-2 and del 1-3 was improved as compared with that of the wild type”.
